# Assays:
# [1] = biological target: TfiT, yeast two-hybrid fusion (Helicobacter pylori); assay: two-hybrid; pGBT9 bait and pGAD424 prey in S. cerevisiae PJ69-4A; lacZ reporter, β-galactosidase activity in cell extracts with ONPG
# [2] = biological target: TfiA, yeast two-hybrid fusion (Helicobacter pylori); assay: as above
substance,measurement,setting,value
"TfiA, yeast two-hybrid fusion (natural protein)",lacZ fold increase relative to the self-activation control of the bait vector,[1],47.2 fold
same,lacZ reporter activity (Miller units),[1],89.8 Miller units
same,lacZ fold increase relative to the self-activation control of the bait vector,[2],27.4 fold
same,lacZ reporter activity (Miller units),[2],129 Miller units
"TfiT, yeast two-hybrid fusion (enzyme)",lacZ fold increase relative to the self-activation control of the bait vector,[2],12.9 fold
same,lacZ reporter activity (Miller units),[2],60.8 Miller units
